Laboratory results taken from patent EP4778588A2, “ENZYMATICALLY CLEAVABLE LINKER AND LIGAND-ERIBULIN CONJUGATE CONTAINING SAME” (priority 2022, dated 2024).

Tested on: KATO III cell line (human gastric cancer cells)
Assay: Cell viability test (same method as for Calu-6) in KATO III cells
Assay type: cell-based
Conditions: average DAR of 2 to 3, read-out: EC/IC50 values for cell viability
Method: Human Calu-6 cells (manufacturer: Procell, product code: CL-327, human lung cancer cells) were resuscitated and seeded into a 96-well culture plate. The culture medium used was DMEM/F12 (manufacturer: Hyclone, product code: SH30023.01), supplemented with 10% FBS (manufacturer: Gibco, product code: 10099141). Each well contained 2,500 cells in 150 µl of medium. The plate was incubated at 37°C in a 5% CO2 incubator. Approximately 20 hours later, 50 µl of medium containing different antibody-drug conjugates were added to each well, setting the final drug concentrations at 0 to 100 nM across 12 dilution gradients (initial concentration: 100 nM; subsequent 5-fold serial dilutions across 10 gradients; last gradient containing no drug, and each sample was tested in duplicate wells). […] After a 2-minute reaction, fluorescence intensity was measured using a Tecan Spark instrument, following the reagent kit's recommended protocol. […] EC/IC50 values were calculated using four-parameter fitting.
Further, following the above examples, antibody-drug conjugates (ADCs) of Trastuzumab and Bemarituzumab conjugated with the linker-toxin MC-VAGGFG-PAB-Eribulin were prepared for validation. […] Activity was measured using the SK-BR-3 cell line (human breast cancer cells) and KATO III cell line (human gastric cancer cells).

B1: Bemarituzumab MC-VAGGFG-PAB-Eribulin: Bemarituzumab conjugated with the linker-toxin MC-VAGGFG-PAB-Eribulin (conjugate, chains of the INN, looked up)
VH: QVQLVQSGAEVKKPGSSVKVSCKASGYIFTTYNVHWVRQAPGQGLEWIGSIYPDNGDTSYNQNFKGRATITADKSTSTAYMELSSLRSEDTAVYYCARGDFAYWGQGTLVTVSS
VL: DIQMTQSPSSLSASVGDRVTITCKASQGVSNDVAWYQQKPGKAPKLLIYSASYRYTGVPSRFSGSGSGTDFTFTISSLQPEDIATYYCQQHSTTPYTFGQGTKLEIK
modifications: MC-VAGGFG-PAB-Eribulin
  IC50: 0.097 nM
